For this assay, the target named is T1, β-klotho (UniProt Q99N32).
T1 sequence: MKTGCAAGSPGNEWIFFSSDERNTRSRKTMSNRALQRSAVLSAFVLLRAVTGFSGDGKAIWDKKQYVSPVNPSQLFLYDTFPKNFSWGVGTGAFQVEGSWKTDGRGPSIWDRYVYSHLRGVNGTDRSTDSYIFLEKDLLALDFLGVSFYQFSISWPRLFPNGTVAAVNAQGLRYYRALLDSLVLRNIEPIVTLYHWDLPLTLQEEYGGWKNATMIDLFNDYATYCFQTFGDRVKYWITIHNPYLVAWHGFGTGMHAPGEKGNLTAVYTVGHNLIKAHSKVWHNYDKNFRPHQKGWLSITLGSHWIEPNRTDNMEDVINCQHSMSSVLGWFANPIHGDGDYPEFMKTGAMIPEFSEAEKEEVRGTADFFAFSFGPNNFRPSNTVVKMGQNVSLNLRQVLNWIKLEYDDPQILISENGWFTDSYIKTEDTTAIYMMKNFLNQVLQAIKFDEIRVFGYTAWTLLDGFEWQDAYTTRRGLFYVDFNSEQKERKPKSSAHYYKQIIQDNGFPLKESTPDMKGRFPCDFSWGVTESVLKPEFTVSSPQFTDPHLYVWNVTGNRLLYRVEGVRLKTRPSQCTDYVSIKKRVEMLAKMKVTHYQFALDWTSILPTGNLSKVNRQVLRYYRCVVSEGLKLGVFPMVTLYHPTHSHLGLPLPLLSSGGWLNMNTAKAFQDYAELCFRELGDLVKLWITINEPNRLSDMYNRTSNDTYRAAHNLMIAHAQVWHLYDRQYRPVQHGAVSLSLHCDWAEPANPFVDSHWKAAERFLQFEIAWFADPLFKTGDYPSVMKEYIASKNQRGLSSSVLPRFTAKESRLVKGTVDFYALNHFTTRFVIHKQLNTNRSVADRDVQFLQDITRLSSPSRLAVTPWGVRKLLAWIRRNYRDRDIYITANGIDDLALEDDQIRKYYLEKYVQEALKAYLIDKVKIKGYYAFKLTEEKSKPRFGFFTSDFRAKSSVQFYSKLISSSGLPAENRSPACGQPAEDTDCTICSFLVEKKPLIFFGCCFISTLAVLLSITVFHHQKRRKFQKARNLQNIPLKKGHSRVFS

EC50 of proliferation (MTT assay, 24 h) of β-klotho-transfected NIH-3T3 cells, hFGF21 data for 1 substance are collected here from publication PMC5700921.

As for “purified human fibroblast growth factor 21 (hFGF21), tag-free after TEV cleavage of MBP-hFGF21 (from UniProt Q9NSA1 29-209) (ligand)”, the EC50 of proliferation (MTT assay, 24 h) of β-klotho-transfected NIH-3T3 cells, hFGF21 at 0.01-500 ng/mL; untransfected cells showed no proliferative effect (data not shown) is 0.3 nM.
